Where two headings read alike, the source gives them in different places.
Legend:
[1] = Kinetic characterization of dCK variants, substrate D-dC; assay type: biochemical; settings: for rate of phosphorylation, D-dC: Table 8, nucleoside 200 mM, ATP 1 μM [sic]; for kobs D-dC: nucleoside concentration of 200 μM, ATP 1 mM; for Rel kobs (D-dC): relative to WT
[2] = Kinetic characterization of dCK variants, substrate D-dG; assay type: biochemical; settings: for rate of phosphorylation, D-dG: Table 8, nucleoside 200 mM, ATP 1 μM [sic]; for kobs D-dG: nucleoside concentration of 200 μM, ATP 1 mM; for Rel kobs (D-dG): relative to WT
[3] = Kinetic characterization of dCK variants, substrate D-dA; assay type: biochemical; settings: for kobs D-dA: nucleoside concentration of 200 μM, ATP 1 mM; for Rel kobs (D-dA): relative to WT
[4] = Kinetic characterization of dCK variants, substrate AraC; assay type: biochemical; settings: for kobs AraC: nucleoside concentration of 200 μM, ATP 1 mM; for Rel kobs (AraC): relative to WT
[5] = Kinetic characterization of dCK variants, substrate gemcitabine; assay type: biochemical; settings: for kobs Gem: nucleoside concentration of 200 μM, ATP 1 mM; for rate of phosphorylation, Gem: Table 8, nucleoside 200 mM, ATP 1 μM [sic]; for Rel kobs (Gem): relative to WT
[6] = Kinetic characterization of dCK variants, substrate D-dT; assay type: biochemical; settings: for rate of phosphorylation, D-dT: Table 8, nucleoside 200 mM, ATP 1 μM [sic]; for kobs D-dT: nucleoside concentration of 200 μM, ATP 1 mM; for Rel kobs (D-dT): relative to WT
[7] = Kinetic characterization of dCK variants, substrate L-dT; assay type: biochemical; settings: for rate of phosphorylation, L-dT: Table 8, nucleoside 200 mM, ATP 1 μM [sic]; for kobs L-dT: nucleoside concentration of 200 μM, ATP 1 mM; for Rel kobs (L-dT): relative to WT
Wild Type dCK [8] = biological target: T1, Wild Type dCK (Homo sapiens, UniProt P27707); assay: Steady-state kinetic (colorimetric, enzyme-coupled) assay of nucleoside phosphorylation by wild type dCK; settings: for Km / kcat: Wild Type dCK, 0.4 μM dCK, 1 mM ATP.Mg, 37° C.
[9] = Kinetic analysis of dCK variants, substrate L-dU; assay type: biochemical; settings: Table 8; nucleoside 200 mM, ATP 1 μM [sic]
Method: In a separate experiment, those mutant dCKs were analyzed in the presence of a nucleoside substrate at a concentration of 200 mM, and a phosphoryl donor ATP at a concentration of 1 μM.

SKBR-3 = assay: MTS cytotoxicity assay in breast cancer-derived cell line; assay type: cell-based, human; settings: SKBR-3, 96 hours
Method: The cells were then exposed to varying amount of BVdU for 96 hours. […] Cell viability was measured using the MTS cytotoxicity assay according to the manufacturer's instructions (Promega). […] MTS was reduced by cellular dehydrogenase into formazan, which is soluble in tissue culture medium. […] Since the production of formazan is proportional to the number of living cells, the intensity of the produced color is a good indication of the viability of the cells.

parent 293 cells = assay: Proliferation of parental 293 cells treated with nucleoside analogs; assay type: cell-based, human
Method: Next, whether the dCK-S74E/R104M/D133A variant could inhibit cell growth in the presence of NAs including BVdU was tested. Human 293 cells were stably transfected with a recombinant expression construct encoding the dCK-S74E/R104M/D133A protein. The proliferative capacity of the stably transfected cell line was compared to the parental 293 cells after treating the cells with several nucleoside analogs such as AraC, gemcitabine, and BVdU. Since some of the nucleosides were first dissolved in the solvent DMSO, equal amounts of DMSO were used as control.

Wild Type dCK [10] = biological target: T1, Wild Type dCK; set-up: The electron density for dCK extended to the last residue (Leu260), while the N-terminus (residues 1 to 19) was flexible; His-tag (N); made in house; host or cells: E. coli BL21(DE3); settings: Lotfi et al., 1999; Mansson et al., 2003; cited from earlier work
[11] = McSorley et al., 2008; cited from earlier work
A100V/R104M/D133A-dCK = biological target: T2, A100V/R104M/D133A-dCK (Homo sapiens, UniProt P27707, A100V/D133A/R104M); assay: Steady-state kinetic assay of nucleoside phosphorylation by A100V/R104M/D133A-dCK; assay type: biochemical
T2 construct: His-tag (N); made in house

[12] = Iyidogan, et al., 2008; read-out: Km for D-dT; cited from earlier work
HL60 cell line = assay: Apoptosis assay (Annexin V and PI staining) in CD33 positive HL60 cells; assay type: cell-based, human; settings: HL60, AraC at 1 μM, after 96 hours
Method: The HuM195 antibody will only bind and internalize to cells expressing CD33. Thus, the HL60 cell line (derived from AML cells) and the NB4 cell line, which are CD33 positive, were used to test the activity of the HuM195-dCK system in live cells. The cells were treated with AraC, the HuM195-dCK conjugate, or the combination of HuM195-dCK and the AraC. Annexin V and propidium iodide (PI) staining was used to identify apoptotic cells. […] The combination of AraC with the conjugate results in 20% more killing than AraC alone.

NB4 cell line = assay: Apoptosis assay in CD33 positive NB4 cells; assay type: cell-based; settings: NB4, AraC 250 nM, after 96 hours
Method: The NB4 cells were also treated with AraC, the HuM195-dCK conjugate, or the combination of HuM195-dCK and the AraC, and an apoptosis assay was performed as above. The AraC dose used, however, was decreased from 1000 nM to 250 nM. The results were similar to those observed in the HL60 cells (FIG. 8). The conjugate with AraC (right bars) achieve ˜65% cell killing after 96 hours, whereas AraC alone was below 40%.

## R104V/D133A: human dCK mutant, valine at position 104, D133A
[1]
  rate of phosphorylation, D-dC: 0.03 s⁻¹
  kobs D-dC: <0.005 s⁻¹
[2]
  rate of phosphorylation, D-dG: 0.03 s⁻¹
  kobs D-dG: <0.005 s⁻¹
[3]
  kobs D-dA: <0.005 s⁻¹
[4]
  kobs AraC: <0.005 s⁻¹
[5]
  kobs Gem: <0.005 s⁻¹
[6]
  rate of phosphorylation, D-dT: 0.04 s⁻¹
  kobs D-dT: <0.005 s⁻¹
[7]
  rate of phosphorylation, L-dT: 0.05 s⁻¹
  kobs L-dT: <0.005 s⁻¹

## Nc1ccn([C@H]2CC[C@@H](CO)O2)c(=O)n1 [ddC, 2′,3′-dideoxycytidine]
Wild Type dCK [8]
  Km: 407 µM
  kcat: 0.18 s⁻¹

## R104L/D133A: modified human dCK, leucine at position 104, alanine at position 133, SEQ ID NO:10
[1]
  rate of phosphorylation, D-dC: 0.27 s⁻¹
  kobs D-dC: 0.27 ± 0.09 s⁻¹
  Rel kobs (D-dC): 9
[2]
  rate of phosphorylation, D-dG: 0.3 s⁻¹
  kobs D-dG: 0.30 ± 0.01 s⁻¹
  Rel kobs (D-dG): 0.32
[3]
  kobs D-dA: 3.45 ± 0.16 s⁻¹
  Rel kobs (D-dA): 2.9
[4]
  kobs AraC: 0.64 ± 0.06 s⁻¹
  Rel kobs (AraC): 0.35
[5]
  rate of phosphorylation, Gem: 2.04 s⁻¹
  kobs Gem: 2.04 ± 0.03 s⁻¹
  Rel kobs (Gem): 5.20
[6]
  Km: < 25 µM
  rate of phosphorylation, D-dT: 2.86 s⁻¹
  kobs D-dT: 2.86 ± 0.09 s⁻¹
  Rel kobs (D-dT): 358
[7]
  rate of phosphorylation, L-dT: 1.07 s⁻¹
  kobs L-dT: 1.07 ± 0.09 s⁻¹
  Rel kobs (L-dT): 63
[9]
  rate of phosphorylation, L-dU: 2.56 s⁻¹

## O=c1[nH]c(=O)n([C@H]2C[C@H](O)[C@@H](CO)O2)cc1/C=C/Br [BVdU, (E)-5-(2-bromovinyl)-2′-deoxyuridine]
SKBR-3
  effect on cell viability / proliferation: no detrimental effect
Parent 293 cells; highest tested concentration of 50 μM
  inhibition of growth: did not inhibit the growth

## Nc1nc2c(ncn2[C@H]2C[C@H](O)[C@@H](CO)O2)c(=O)[nH]1 [D-dG, deoxyguanosine]
Wild Type dCK [8]; Table 9
  kcat, Wild-type: ~2.5 s⁻¹

## R104I/D133A: modified human dCK, isoleucine at position 104, alanine at position 133, SEQ ID NO:12
[1]
  rate of phosphorylation, D-dC: 0.06 s⁻¹
  kobs D-dC: 0.06 ± 0.01 s⁻¹
  Rel kobs (D-dC): 2
[2]
  rate of phosphorylation, D-dG: 0.08 s⁻¹
  kobs D-dG: 0.08 ± 0.01 s⁻¹
  Rel kobs (D-dG): 0.08
[3]
  kobs D-dA: 0.21 ± 0.01 s⁻¹
  Rel kobs (D-dA): 0.18
[4]
  kobs AraC: 0.07 ± 0.01 s⁻¹
  Rel kobs (AraC): 0.25
[5]
  rate of phosphorylation, Gem: 0.21 s⁻¹
  kobs Gem: 0.21 ± 0.08 s⁻¹
  Rel kobs (Gem): 0.53
[6]
  rate of phosphorylation, D-dT: 0.4 s⁻¹
  kobs D-dT: 0.40 ± 0.01 s⁻¹
  Rel kobs (D-dT): 50
[7]
  rate of phosphorylation, L-dT: 0.19 s⁻¹
  kobs L-dT: 0.19 ± 0.02 s⁻¹
  Rel kobs (L-dT): 10
[9]
  rate of phosphorylation, L-dU: 0.4 s⁻¹

## Nc1nc(Cl)nc2c1ncn2[C@@H]1O[C@H](CO)[C@@H](O)[C@@H]1F [clofarabine, 2-chloro-2′-arabino-fluoro-2′-deoxyadenosine]
Wild Type dCK [10]
  efficiency as substrate for dCK relative to cladribine: ~3 fold

## R104F/D133A: human dCK mutant, phenylalanine at position 104, D133A
[1]
  rate of phosphorylation, D-dC: 0.02 s⁻¹
  kobs D-dC: <0.005 s⁻¹
[2]
  rate of phosphorylation, D-dG: 0.02 s⁻¹
  kobs D-dG: <0.005 s⁻¹
[3]
  kobs D-dA: <0.005 s⁻¹
[4]
  kobs AraC: <0.005 s⁻¹
[5]
  kobs Gem: <0.005 s⁻¹
[6]
  rate of phosphorylation, D-dT: 0.02 s⁻¹
  kobs D-dT: <0.005 s⁻¹
[7]
  rate of phosphorylation, L-dT: 0.02 s⁻¹
  kobs L-dT: <0.005 s⁻¹

## R104Q/D133A: modified human dCK, glutamine at position 104, alanine at position 133, SEQ ID NO:8
[1]
  rate of phosphorylation, D-dC: 0.08 s⁻¹
  kobs D-dC: 0.08 ± 0.01 s⁻¹
  Rel kobs (D-dC): 2.7
[2]
  rate of phosphorylation, D-dG: 0.06 s⁻¹
  kobs D-dG: 0.06 ± 0.01 s⁻¹
  Rel kobs (D-dG): 0.06
[3]
  kobs D-dA: 0.18 ± 0.04 s⁻¹
  Rel kobs (D-dA): 0.15
[4]
  kobs AraC: 0.18 ± 0.01 s⁻¹
  Rel kobs (AraC): 0.60
[5]
  rate of phosphorylation, Gem: 0.17 s⁻¹
  kobs Gem: 0.17 ± 0.04 s⁻¹
  Rel kobs (Gem): 0.43
[6]
  rate of phosphorylation, D-dT: 0.1 s⁻¹
  kobs D-dT: 0.10 ± 0.06 s⁻¹
  Rel kobs (D-dT): 12.5
[7]
  rate of phosphorylation, L-dT: 0.15 s⁻¹
  kobs L-dT: 0.15 ± 0.02 s⁻¹
  Rel kobs (L-dT): 9
[9]
  rate of phosphorylation, L-dU: 0.14 s⁻¹

## dCK S74E: dCK S74E mutant mimicking the Ser74 phosphorylated state [reference compound]
[11]
  increase of the rate of phosphorylation of dC: 11 fold

## Nc1ccn([C@@H]2O[C@H](CO)[C@@H](O)C2(F)F)c(=O)n1 [gemcitabine, 2′,2′-difluorodeoxycytidine]
A100V/R104M/D133A-dCK
  Km: 50 µM
  kcat: 3.52 s⁻¹
Parent 293 cells; Homo sapiens, HEK293, 1 μM, read-out: inhibition of growth
  inhibition at 1 µM: 75%
Wild Type dCK [8]
  Km: 22 µM
  kcat: 0.37 s⁻¹
Wild Type dCK [8]; wild type dCK
  higher enzymatic efficiency compared to dC: ~4 fold
  increase in kcat compared to dC: 10 fold

## WT: wild type human deoxycytidine kinase, SEQ ID NO:1 [reference compound]
[1]
  rate of phosphorylation, D-dC: 0.03 s⁻¹
  kobs D-dC: 0.03 ± 0.01^b sec^−1
  Rel kobs (D-dC): 1
[2]
  rate of phosphorylation, D-dG: 0.94 s⁻¹
  kobs D-dG: 0.94 ± 0.18 s⁻¹
  Rel kobs (D-dG): 1
[3]
  kobs D-dA: 1.19 ± 0.01 s⁻¹
  Rel kobs (D-dA): 1
[4]
  kobs AraC: 0.30 ± 0.04^b sec^−1
  Rel kobs (AraC): 1.00
[5]
  rate of phosphorylation, Gem: 0.39 s⁻¹
  kobs Gem: 0.39 ± 0.01 s⁻¹
  Rel kobs (Gem): 1.00
[6]
  kobs D-dT: 0.008 ± 0.001^b sec^−1
  Rel kobs (D-dT): 1
[7]
  kobs L-dT: 0.017 ± 0.023 s⁻¹
  Rel kobs (L-dT): 1
[12]
  Km: > 3000 µM

## R104K/D133A: human dCK mutant, lysine at position 104, D133A
[1]
  kobs D-dC: <0.005 s⁻¹
[2]
  kobs D-dG: <0.005 s⁻¹
[3]
  kobs D-dA: <0.005 s⁻¹
[4]
  kobs AraC: <0.005 s⁻¹
[5]
  kobs Gem: <0.005 s⁻¹
[6]
  kobs D-dT: <0.005 s⁻¹
[7]
  kobs L-dT: <0.005 s⁻¹

## R104Q: human dCK variant of Table 8 with Q at position 104 and unchanged D133
[1]
  rate of phosphorylation, D-dC: 0.07 s⁻¹
[2]
  rate of phosphorylation, D-dG: 0.06 s⁻¹
[5]
  rate of phosphorylation, Gem: 0.06 s⁻¹
[6]
  rate of phosphorylation, D-dT: 0.05 s⁻¹
[7]
  rate of phosphorylation, L-dT: 0.06 s⁻¹
[9]
  rate of phosphorylation, L-dU: 0.06 s⁻¹

## Nc1ccn([C@@H]2O[C@H](CO)[C@@H](O)[C@@H]2O)c(=O)n1 [Ara-C, 1-β-D-arabinofuranosylcytosine]
HL60 cell line
  cell death (apoptotic cells): ~50%
NB4 cell line
  cell killing: below 40%
Parent 293 cells; 1 μM
  inhibition of growth: no inhibitory effect

From patent US8349318B2, “Use of specifically engineered enzymes to enhance the efficacy of prodrugs” (The Board of Trustees of the University of Illinois, priority 2008, dated 2013)
